Experimental data taken from the nanobody polyreactivity screen of Harvey et al. (2022).

Assay: yeast display, Sf9 membrane polyspecificity reagent, FACS + sequencing; frameworks hold sequencing errors
Procedure, shortened: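 A synthetic nanobody library was expressed on Saccharomyces cerevisiae BJ5465 by galactose induction for 36–48 hours. The library was stained for 1 hour at 4 °C with 10% biotinylated, detergent-solubilized Sf9 membrane reagent and enriched with streptavidin microbeads before FACS. Low and high (top ~1%) gates were set on anti-HA fluorescence for expression and streptavidin fluorescence for reagent binding, and each polyreactivity label reflects the gate of origin.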

Sequence	polyreactivity (PSR sort gate)
EVQLVESVGGLVHAGGSLGLSFAASGSIFDRNAMGWYRQAPGKERELVAAISVSGGSTYYADSVKGRFTISRDNAKNTVYLQMNSLKPEDTAVYYCDKAGRYANLPYGYWGHGTQVTVSS	high polyreactivity
QVQLVESGGGLVQAGGSLRLRCAASGSIFKGYAMGSYRQAPGKERELVAAIRGSGGSSYYADSVKGRFTISRDNAKNTVYFQLISLTPEDTAFYYCAAVAYTGGPRKLGFNYWGQATQVTVSS	high polyreactivity
QVQLVESGGGLVQAGGSLRLSCAASGGTFYVNALGWYRQAAGKERELVAAISYSGGNTYYADSVKGRFTISRDNAKNTVYLQMNSLKPEDTAVYYCAGEVFPWWGDDYWGQGTQVTVSS	low polyreactivity
QVQLVESGGGLVQAGGSLRLSCAASGSIFSFNAMGWYRQAPGKERELVAAISYSGGSTYADSVKGRFTISRDNAKNTVYLHMNSLKPEDTAVYYCAADGLDYSSGGDGYWGQGTQVTVSS	low polyreactivity
QVQLVESGGGLVQAGGSLRLSCAASGLILGYYAMGWYRQAPGKERELVAAITSSGTTTYYADSVKGRFTISRDNAKNTVYLQMNSLKPEDTAVYYWAALYIGKKRFNYWGQGTQVNVSS	high polyreactivity
QVQLVESGGGLVQAGGSLRLSCAASGSIFYYYAMGWYRQAPGKERELVAAISYGGGSTYYADSVKGRFTISRDNAKNTVYLQMNSLKPEDTAVYYCAVQEVVGWYLYDYWGQGTQVTVSS	high polyreactivity
QVQLVESGGGLVQAGGSLRLICVASGRIFLTYAMGWYRQAPGKERELVAAISYSGASTYYADSVKGRFTISRDNAKNTVYLQMNSLKPEDTAVYYCAKDGTQYERQDPAYGYWGQGTQVTVSS	high polyreactivity
QVQLVESGGGLVQAGGSLRLSCAASGSIFTGNTMGWYRQAPGKDRELVATISRRGGSTYYADSVKGRFTITRDNAKYSVYLQMNSLKPEDTAVYYCAARGPYRPPHGDAYYTYGYWGQGTQVTVSS	high polyreactivity
QVQLVESGGGLVQAGGSLRLSCAASGSTFAANAMGWYRQAPGKERELVAAIDSSTGSTYYADSVKGRFTISRDIAKNNVFLQMNRLKPEDTAVYYCNKTSFLVKLDYWGQGTQVTVSS	low polyreactivity
QVQLVESVGGLVQAGGSLRLSCAASGITFYDNAMGWYRQAPGKERELVAGISYSGGRTYYADSVKGRFTISRDNAKNTVYLQMNSLKPEDTAVYYCNARFGKYRSRQGYYYWGQGTQVTVSS	high polyreactivity
QVQLVESGGGLVQAGGSLRLSCAASGYTFRANGMGWYRQAPGKERELVAAITQSVDNTYYADSVKGRFTISRDNAKNTVYLQVNSLKPEDTAVYYCATEYGQTGYPQMGYWGQGTQVTVSS	low polyreactivity
QVQLVESGGGLVQAGGSLRLSCAASGLTMTWNSMGWYRQAPGKERELVAAIRWRGSSTYYADSVKGRFTISRDNAKNTVYLQLNSLKPEDTAVYYCAAEPRYYHVGYEYDNWGQGTQVTVSS	high polyreactivity
QDQLVESGGGLVQAGGSLRLSCAASGNIFWSNAMGWYRQAPVKERELVAGIRSTGGSTYYADSVKGRFTISRDNAKNTVYLQMNSLKPEDTAVYYCAAEHWYSTPWWTDDYWGQGTQVTLSS	high polyreactivity
QVQLVESGVGLVQAGGSLRLSCAASGLTFLWYAMGWYRQAPGKERELVAAITSGGRTKYADSVKGRFTISRDNAKNTVYLQMNSLKPEDTAVYYCAAYTQWWGYDYWGQGTQVSVSS	high polyreactivity
QVQLEESGGGLVQAGGSLRLSCAASGRNFYYNAIGWYRQAPGKERELVATITRAGGTYYADSVKGRFTISRDNAKNTVYLQMNSLKPEDTAVYYCAKRHPIVDDYKGDYWGQGTQVTVSS	low polyreactivity
QVQLVESGGGLVQAGGSLRLSCAASGSTFAYYAMGWYRQAPGKERELVAAISWRGGSTYYADSVKGRFTISRDNAKNTVYLHMNSLKPEDTAVYYCATLSAWKASSYDYWGQGTQVTVSS	high polyreactivity
QVQLVESGGGLVQAGGSLRLSCAASGFIFAKYAMGWYRQAPGKERELVAAITSGGSTNYADSVKGRFTISRDNAKNTVYLQMNSLKPEDTAVYYCNRGFDWWYRYRHYDYWGQGTQVTVSS	low polyreactivity
QVQLVESGGRLVQAGGSLRLSCAASGLTFGSYAMGWYRQAPGKESELVAGISARAGRTYYADSVKGRFTISRDNAKNTVYLQMNSLKPEDTAVYYCAARVYSRYHTKGFSNYQYDYWGQGTQVTVSS	high polyreactivity
QDQLVESGGGLVQAGGSLRLSCAATGRIFERNAMGWYRQAPAKERELVARITSGGGTYYADSVKGRFTISRDNAKNTVYLQMNSLKPEDTAVYYCAVQYLYRKYRRYDYWGQGTQVTVSS	high polyreactivity
QVQLVESGGGLVQAGGSLRLSCAASGRIFNYNAMGWYRQAPGKERELVAVITSGDSTNYADSVKGRFTISRDNAKNTVYLQMNSLKPEDTEVYYCAAEYYSIRYGPHSIEVYGMDYWGQGTQVTVSS	low polyreactivity
QVQLVESAGGLVQAGGRLRLSCAASGFTFKKYAMGWYRQAPGKERELVASITWSGGSTSYADSVKGRFTISRDNAKNTVYLQMTSLKPEDTAVYYCAAATFVYRLRYNRFDYGGQGTQVTVSS	high polyreactivity
QVQLVESGGGLVQAGGSLRLSCAASGSTFGRNVMGWYRQAPGKERELVAAISIRGGSTYYADSVKGRFTISRDNAKNTVYLQMNSLKPEDTAVYYCARDYPTDAYDYWGQGTQVTVSS	low polyreactivity

Sequence	polyreactivity (PSR sort gate)
QVQLVESGGGLVQAGGSLRLSCAASGRIFSAYVMGWNRQAPGKERELVAAISSGGTRTSYADSVKGRFTISRDNAKNTVYLQMNSLTPEDTAVYYCAAARFYRSAYGYWGQGTQVTVSS	high polyreactivity
QVQLVESGGGLVQAGGSLRLSCAASGRIFRYYTMGWYRQAPGKERELVAAITSSSGSTYYADSVKGRFTISRDNAKNTVYLQMNSLKPEDTAVYYCNAVRYTTQTPKVDYGYWGQGTQVTVSS	high polyreactivity
QVQLVETGGRKVQPGGSLRLSCAASRRTFDHNAMGWYRQAPGKERELVAAITWSGGITDYADSVKRPFTISRDNAKNTVYLEMFSLKPEDTAVWGQGTQVSVSS	low polyreactivity
QVQLVESGGGLVQAGGSLRLSCAASGRIFTSNAMGWYRQAPGKERELVAAINRSGGRTYYADSVKGRFTISRDNAKNTVYLQMNSLKPEDTAVYYCNKVPYVFGFAASDYWGQGTQVTVSS	high polyreactivity
QVQLVESGGGLVQAGGSLRLSCAASGFTFVPYAMGWYRQAPGKEREFVADITSSGTTNYADSVKGRFTISRDNAKNTVYLQMNSLKPEDTAVYYCAADPDSGQVPFDYWGQGTQVTVSS	low polyreactivity
QVQLVESAGGLVQAGGSLRLSCAASGSTFTGYAMGWYRQAPGKERELVAAITYSGVRTNYADSVKGRFTISRDNANNTVYLQMNSLKPEDTAVYYCNAAVVYVKMDYWGQGTQVTVSS	low polyreactivity
QVQLVESGGGLVQAGGSLRLSCAASGRIFPYYDMGWYRQAPGKERELVAGITTSGGTTYADSVKGRFTISRDNAKNTVYLQMNSLKTEDTAVYYCNKLRLRLSRWTYDYWGHGTQVTVSS	low polyreactivity
QVQLVESGGALVQEAGSLRLRCAASGSIFDYKGMRWSRPAPGKERELVAAITSSGGSTYYADSVKGRFSISRDNAKNTDYLQMNSLIPEVSAFYYCAVDILYFPASYATQPVDYWGQGTQVTVSS	low polyreactivity
QVQLVESGGGLVQAGGSLRLSCAASGSTFVTYAMGWYRQAPGKEREFVAAISRTGGSTYYADSVKGRFTISRDNAKYTVYLQMNSLKPEDSAVYYCNRVGRGYSHNQYDLGYWGQGTLVTVSS	low polyreactivity
QVQLVESGGGLVQAGGSLRLSCAASGSTFFIKAMGWYRQAPGKERELVAAITSTDSTTYADSVKGRFTISRDNAKNTVYLQMNSLKPEDTAVYYCAKETIGQDPVSGAWARHEYDYWGQGTQVTVSS	low polyreactivity
QVQLVESGGGLVQAGGSLRLSCAASGRIFGRYAMGWYRQAPGKERELVASITYRGGGTYYADSVKGRFTISRDNAKNTVYLQMNSLKAEDTAVYYCAAALSNVRNVRSPYDYWGQGTQVTVSS	high polyreactivity
QVQLVESGGGLVQAGGSLRLSCAASGRTFYWYAMGWYRKAPGKERELVAAITSGGSTYYADSVKGRFTISRDNEKNTVYLQMNILKPEDTAVYYCGVDVDWWDGMDYWGQGTQVTVSS	high polyreactivity
QVQLVESGGGLVQAGGSLRLSCAASGRIFVYNAMGWYRQAPGKERELVAAINSGDSTYYADSVKGRFTISRDNAKNTVYLQMNSLKPEDTAVYYCAADIHYYPGYLAYDYWGQGTQVTVSS	low polyreactivity
QVQLVESGGGIVQAGGSLRLSCAASGSTLTIYAMGWYRQAPGKERELVAAISRSGGRTYYADSVKGRFTISRDNAKNTVYLQMNSLKPEDTAVYYCATQPVRDRPGGSRKKYYYWGLGTQVTVSS	high polyreactivity
QVQLVESGGGLVQAGGSLRLSCAASGSTFVANVMGWYRQAPGKERELVAAINTNGGSTYYADSVKGRFTISRDNAKNTVYLQMNSLKPEDTAVYYCNKAWFRYWYGYWGQGTQVTVSS	low polyreactivity
QVQLVESGGGLVQAGGSLRLSCAASGRTFARYTMGWYRQAPGKERELVAAITSGGGSTYYADSVKGRFTISRDNAKNTVYLQMNSLKPEDTAVYYCNARRYYYITGRYGYWGQGTQVTVSS	high polyreactivity
QVQLVESGGGLVQAGGSLRLSCAASGFTFAFYAMGWYRQAPGKERELVDAIRRTGSTNYADSVKGRFTISRDNAKNTVYLQMNSLKPEDNAVYYCAKTLWYDRGVGYWGQGTQVTVSS	high polyreactivity
QVQLVESGGGLVQAGGSLRVSCAASGSIFQYYGMGWYRQAPGKERELVAAISRGGSTNYADSVKGRFTISRDYAKNTGYLQMNSLKPEDTAVYYCNARTYRKAYSGYNYWGQGTQVTVSS	high polyreactivity
QVQLVESGGGLVQAGGSLRLSCAASGFTFYSYAMGWYRQAPGKERELVAAISWSGTRTYYADSVKGRFTISRDNAKNTVYLQMNSLKPVDTAVYDCAADTRRWARGYDYWGQGTQVTVSS	high polyreactivity
QVQLVESGGGLVQAGGSLRLSCAASGSTFRRYAMGWYRQAPGKERELVAAITWRGGSTYYADSVKGRFTISRDNAKNTVFLQMNSLKPEDTAVYYCATSDYYYDYWGQGTQVTVSS	high polyreactivity
QVQLVESGGGLVQAGGSLRLSCAASGRIFGLYAMGWYRQAPGKERELVAAISRGGGSTYYADSVKGRFTISRDNAKNTVYLQMNSLKPEDTAVYYCATGLGYFSRLDYWGQGTQVTVSS	low polyreactivity
